Measured values published in publication PMC5045189 (2016).

Biological target: T1, Staphylococcus aureus manganese transporter protein MntC, wild type, recombinant (Staphylococcus aureus, UniProt W8TNQ9 1-309)
T1 chain: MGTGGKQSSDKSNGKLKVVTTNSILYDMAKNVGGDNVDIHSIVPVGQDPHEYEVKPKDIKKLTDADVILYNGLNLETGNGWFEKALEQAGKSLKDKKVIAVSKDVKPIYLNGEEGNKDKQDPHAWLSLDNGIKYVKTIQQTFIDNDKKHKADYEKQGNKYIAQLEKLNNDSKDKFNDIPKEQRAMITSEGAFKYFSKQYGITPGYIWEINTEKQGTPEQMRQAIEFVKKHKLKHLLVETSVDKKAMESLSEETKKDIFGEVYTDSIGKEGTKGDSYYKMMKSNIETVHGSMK
Experiment: ELISA

B1: monoclonal antibody mAB 305-78-7 (intact antibody, interference group 2) (antibody, V domains shown)
VH: QVQLQQSGAELARPGASVKMSCKASGYTFTRYTMHWVQQRPGQGLEWIGYINPSSDYTKYNQKFKDKATMTADKSSSTAYMQLSSLTSEDSAVYYCARKEDVGYWYFDFWGTGTTVTVSS
VL: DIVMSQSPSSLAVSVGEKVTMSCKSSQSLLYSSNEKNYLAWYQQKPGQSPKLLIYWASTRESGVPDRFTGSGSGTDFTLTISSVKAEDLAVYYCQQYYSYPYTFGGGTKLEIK
**Q.** B1 was tested. Which Kd did it give?
**A.** 1.3 nM
